Measured values reported in the nanobody polyreactivity screen of Harvey et al. (2022).

assay: yeast display, Sf9 membrane polyspecificity reagent, FACS + sequencing; frameworks hold sequencing errors
In short: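 Nanobodies from a synthetic yeast display library (Saccharomyces cerevisiae BJ5465), induced 36–48 hours with galactose, were stained 1 hour at 4 °C with 10% biotinylated, detergent-solubilized Sf9 membrane reagent, enriched on streptavidin microbeads, then FACS-sorted. Anti-HA (expression) and streptavidin (reagent binding) fluorescence set low and high (top ~1%) gates. Polyreactivity labels come from the gate of origin. Genes were colony-PCR amplified, MiSeq 2 × 250 sequenced and filtered by CDR length.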

Sequence | polyreactivity (PSR sort gate)
QVQLVESGGGLVQAGGSLRLSCAASGGTFTYYAKGWYRQAPGKERELVAAISWSDTSTYYADSVKGRFTISRDNAKNTVYLQMNSLKPEDTAVYYCAAEFYVRYQADYEYWGQGTQVTVSS | high polyreactivity
QVQLVESGGGLVQAGGSLRLSCAASGGTFTYYTMGWYRQAPRKERELVAAISTGGRTYYADSVKGRFTISRDNAKNTVYLQMNSLKPEDTAVYYCDADTYTSRSRYSGSGGYDYWGQGTQVTVSS | low polyreactivity
QVQLVESGGGLVQAGGSLRLSCAASGGTFVSYALGWSRQAPGKERELVAAITYSGGSTYYADSVKGRFTISRDTAKNTVYLQMNSLKPEDTAVYYCAADLGRNLLHTYYYWGQGTQVTVSS | low polyreactivity
QVQLVESGGGLVQAGGSLRLSCAASGGTFWIYAMGSYRQAPGKERELVAGISHGDSTYYADSVKGRFTISRDNAKNTVYLQMNSLKPEDTAVYYCARDYRNPPFAYEYWGQGTQVTVSS | low polyreactivity
QVQLVESGGGLVQAGGSLRLSCAASGGTFWYNAMGLYRQAPGKERELVANIRRSGGRTNYADSVKGRFTISRDNAKNTVYLHMNSLKPEDTAVYYCAARVTPYRGFYYWGQGTQVTVSS | high polyreactivity
QVQLVESGGGLVQAGGSLRLSCAASGGTFYDYAMGWYRQAPGKERELVAAISASGDSTYYADSVKGRFTISRDNAKNTVYLQMNSLKPEDTAVYYCAAEFTAFDGFDYWGQGTQVNVSS | low polyreactivity
QVQLVESGGGLVQAGGSLRLSCAASGGTFYFYAMVWYRQAPGKERELVAAISRSGGSTYYADSVKGRFTISRDNAKNTVYLQMNSLKPEDTAVYYCAARYTGGGIRYDYWGQGTQVTVSS | high polyreactivity
QVQLVESGGGLVQAGGSLRLSCAASGGTFYQYAMGWYIQAPGKERELVAAISRSGGRTYYADSVKGRFTISRDNAKNTVYLQMNSLIPEDTAVYYCAADDVGPPDFYYWGQGTQVTVSS | high polyreactivity
QVQLVESGGGLVQAGGSLRLSCAASGGTFYVNAMGWYRQAPGKERELVADISYSGGRTYYADSVKGRFTISRDNAKKTVYLQMNSLKPEDTAVYYCAADPYWVGYGSPFGYWGQGTQVTVSS | high polyreactivity
QVQLVESGGGLVQAGGSLRLSCAASGGTFYYYAMGWYRQAPGKERELVAAINVSGGNTYYADSVKGRFTISRDNAKNTVYLQMNSLKPEDTAVYYCAADPGARYYYWGQGTQVTVSS | low polyreactivity
QVQLVESGGGLVQAGGSLRLSCAASGGTFYYYAMGWYRQAPGKERELVAAISWSGVSTSYADSVKGRFTISRDNAKNTVFLQMNSMKPEDTAVYYCAAGPFYYTGGHWGQGTQVTVSS | high polyreactivity
QVQLVESGGGLVQAGGSLRLSCAASGGTFYYYAMGWYRQAPGKERELVAAITGTGGRTYYADSVKGRFTISRDNAKNTVYLQMNSLKPEDTAVYYCAKYPAARAVDYWGQGTQVTVSS | high polyreactivity
QVQLVESGGGLVQAGGSLRLSCAASGGTFYYYAMGWYRQAPGKERELVATITWSGDSTNYADSVKGRFTISRDNAKNTVYLQMNSLKPEDTAVYYCAKDLTQSYEYDYWGQGTQVTVSS | low polyreactivity
QVQLVESGGGLVQAGGSLRLSCAASGGTGARNAMGWYRQAPGKERELVATITRRAGTTYYADSVKGRFTISRDNAKNTVYLQMNSLKPEDTAVYYCARVATWGYYPYLIPEVGYDYWGQGTQVTVSS | high polyreactivity
QVQLVESGGGLVQAGGSLRLSCAASGGTIAFNGMGWYRQAPGKERELVAAITWRSGSTYYADSVKGRFTISRDNAKNTVYLQMNSLKPEDTAVYYCAARLYRYTPFDYWGQGTQVTVSS | high polyreactivity
QVQLVESGGGLVQAGGSLRLSCAASGGTIAPYAMGWYRQAPGKERELVATISYSGTSTNYADSVKGRFTISRDNAKNTVYLQMNSLKPEDTAVYYCAKRYHQYRWRGWLWGFDYWGQGTQVTVSS | high polyreactivity
QVQLVESGGGLVQAGGSLRLSCAASGGTIGWYAMGWYRQAPGKERELVAAITSSGGTTFYADSVKGRFTISRDNAKNTVYLQMNSLKPEDTAVYYCAKRGKRPTRYKLGKYDYWGQGTQVTVSS | high polyreactivity
QVQLVESGGGLVQAGGSLRLSCAASGGTIRYYAMGWYSQAPWKERELVAAISVGGGRTYYADSVKGRFTISRDNAKNTVYLQMNSLKPEDTAVYYCAADYASWSNWGYEYWGQGTQVTVSS | high polyreactivity
QVQLVESGGGLVQAGGSLRLSCAASGGTISRYGMGWYRPAPRKERELVAAITRSGSTNYADSVKERFTISRDNAKYTVYLQMNSLKPEDTAVYYGATDKRGRIGGTFDYWGQGTQVTVSS | low polyreactivity
QVQLVESGGGLVQAGGSLRLSCAASGGTLDVYAMGWYRQAPGKEREFVAAISWSGGRTYYADSVKGRFTISRDNAKNTVYLQMNSLKPEDTAVYYCATRDRAGYYYWGQGTQVTVSS | high polyreactivity
QVQLVESGGGLVQAGGSLRLSCAASGGTLDYYVMAWYRQAPGKERELVAAISTNGGSTNYADSVKGRFTISRDNAKNTVYLQMNSLKPEDTAVYYCAATSDVYVFLEFDYWGQGTQVTVSS | low polyreactivity

Sequence | polyreactivity (PSR sort gate)
QVQLVESGGGLVQAGGSLRLSCAASGGTLRGYAMGGYRQAPGKEREFDATISRRGGSTYYADSVKGRFTNSRDNAKNTVYLQMNSLKPEDTAVYYCAKQGQSDYYSWGQGTQVTVSS | high polyreactivity
QVQLVESGGGLVQAGGSLRLSCAASGGTLRYYAMGWYRQAPGKEREFVASISRSGGSTYYADSVKGRFTISRDNAKNTVYLQMNSLKPEDTAVYYCAAYWSPGYTTRRGYWGQGTQVTVSS | high polyreactivity
QVQLVESGGGLVQAGGSLRLSCAASGGTLRYYAMGWYRQAPGTEREFVASIARSGGSTYYADSVKGGFTISRDNAKNTVYLQMNRLKPEDTAVYYCADRVRLYRGFTKYDYWGQGTQVTVSS | high polyreactivity
QVQLVESGGGLVQAGGSLRLSCAASGGTLYYYAMGWSRQAPGKERELVADITNSGSTNYADSVKGRFTISRDNAKNTVYLQMNSLKPEDTAVYYCAAYSWSWYHPEFDYWGQGTQVTVSS | high polyreactivity
QVQLVESGGGLVQAGGSLRLSCAASGGTSRSYAMGWYRQAPGKERELVAAISWRGGRTYYADSVKGRFTISRDNAKNTVYLQMNSLKPEDTAVYYCAARQYSQEPYDYWGQGTQVTVSS | high polyreactivity
QVQLVESGGGLVQAGGSLRLSCAASGGTVKYYAMGWSRQSPGKERELVAAITWSGGSTYYADSVKGRFTISRDNAKNTVYLQMNSLKPEDTAVYYCNAAYSQISFNYWGQGTQVTVSS | high polyreactivity
QVQLVESGGGLVQAGGSLRLSCAASGGTVYRNAMGWYRQAPGKERELVAAITRSGSTNYADSVKGRFTISRDNAKNTVYLQMNSLKPEDTAVYYCAAKFFRNTYSYGMDYWGQGTQVTVSS | high polyreactivity
QVQLVESGGGLVQAGGSLRLSCAASGHIFFINAMGWYRQAPGKERELVAAIDWSGGSTYYADSVKGRFTISRDNAKNTDYLQMNSLKPADTAVYYCAAELLWDYILYYYWGQGTQVTVSS | high polyreactivity
QVQLVESGGGLVQAGGSLRLSCAASGHIFFYYTMGWYRQAPGKERELVAGITIGGSTNYADSVKGRFTISRDNAKNTVYLQMNSLKPEDTAVYYCNVVKYVYIYTYWEYYYWGQGTQVTVSS | low polyreactivity
QVQLVESGGGLVQAGGSLRLSCAASGHIFGRYAMGWYRQAPGKERELVAAITSGGRTNYADSVKGRFTISRDNAKNTVYLQMNSLKPEDTAVYYCAAYSWYFGSRYDYWGQGTQVTVSS | low polyreactivity
QVQLVESGGGLVQAGGSLRLSCAASGHTFRYYAMGWYRQAPGKERELVAAITGGGGSTYYADSVKGRFTISRDNAKNTVYLQMNSLKPEDTAVYYFATGGVSGIVGGDYWGQGTQVTVSS | low polyreactivity
QVQLVESGGGLVQAGGSLRLSCAASGIFRSNARGWYRQAPGKERELVAGISSGGGTNYADSVKGRFTISRDNAKNTVYLQMNSLKPEDTAVYYCAKERIYFDYWYVYTDLVYEYDYWGQGSQVTVSS | low polyreactivity
QVQLVESGGGLVQAGGSLRLSCAASGIFSYYAMGWSRQAPGKERELVAAISWSGGSTYYADSVKGRFTISRDNAKNTVYLQKNSLKPEDTAVYYCNKAYLTSQPRLGYWGQGTQVTVSS | high polyreactivity
QVQLVESGGGLVQAGGSLRLSCAASGIFWANTMEWYRQAPGKERELVAAISWSGDRTYYADSVKGRFTISRDNAKNTVYLQMNSLKPEDTAVYYCAAEGTGLQRYGYFGDDGYWGQGTQVTVSS | low polyreactivity
QVQLVESGGGLVQAGGSLRLSCAASGIIFAANAMGWYRQAPGKELELVAAISKNGGITYYADSVKGRFTISRDNAKNTVYLQMNSLIPEDPAVYYCAARWRQTRRYYYWGQGSQVTVSS | high polyreactivity
QVQLVESGGGLVQAGGSLRLSCAASGIIFAANAMGWYRQAPGKERELVAAISKNGGITYYADSVKGRFTISRDNAKNTVYLQMNSLKPEDTAVYYCAAKLSRRYYYWGQGTQVTVSS | high polyreactivity
QVQLVESGGGLVQAGGSLRLSCAASGIIFADYDMGWYRQAPGKERELVAAITGSGGSTYYADSVKGRFTISRDNEKKTVYLQMNSLKPEDTAVYYCAADYAYSYGYHYGYWGQGTQVTVSS | high polyreactivity
QVQLVESGGGLVQAGGSLRLSCAASGIIFAGNAMGWYRQAPGKERELLAVITSGGSTYYADSVKGRFTISRDNAKNTVFLQINSLIPEDTAVYYCNKVYYAYRVSLYSYGYWGQGTQVTVSS | high polyreactivity
QVQLVESGGGLVQAGGSLRLSCAASGIIFAGNAMGWYRQAPGKERELVAVITSGGSTYYADSVKGRFTISRDNAKNTVYLQMNSLKPEDTAVYYCNKVYYAYRVSLYRYGYWGQGTQVTVSS | high polyreactivity
QVQLVESGGGLVQAGGSLRLSCAASGIIFAGYAMGWYRQAPGKERELVADITSSGTSTYYADSVKGRFTISRDNAKNTVYLQMNSLKPEDTAVYYCAADDPRKNFTILDYLYDYWGQGTQVTVSS | low polyreactivity
